According to the DeepSol protein solubility set:

Assay: soluble on expression in E. coli; label from the status in PepcDB or PDB records

Sequence	soluble on expression in E. coli
MGSDKIHHHHHHMTTRILICDDSALARKQMAKALPPGLADDILFAGDGKEALTILRDQKAELLFLDLNMPELDGYQVLEHIRSEDLPVLTIVVSGDIQPEARERVRKLGAIDFIKKPTDTGVVSRLLKEYGFYRPSELEDTALNDASLHSREAAAPEISVSLSDYLQEISNVAMGRSSDLLARLLKVFVKQPIPKVAFIANSELHMAISAAQRAENYSAVCQGFTGAGIAGEALLLFEDASFREMAELLHYDVLEGESVNVEVLMDMSSILFGAFINGIGDQLDLKLGLGHPTVLGQHRPVNELLDHHSKREEQLLCIEISYALENRDIRCNMLILLTEDSIPFLEKRLAYLVD	not soluble
MGSDKIHHHHHHMPSDAINEGQAQDAPRMRAAEYVRMSTEHQQYSTENQADKIREYAVRRGIDIIKTYADEGKSGLRIDGRQALQSLIRDVEAGTADFDIILVYDVSRWGRFQDADESAYYEYICRRAGIQVAYCAEQFENDGSPVSTIVKGVKRAMAGEYSRELSAKVFAGQCRLIELGYRQGGPAGYGLRRTLVDVKGEVKAELSRGEHKSLQTDRVILRPGPDEEVTIVNQIYRWFIDDGMYESEIAGRLNGMRVRTDLDREWTRATVREVLTNEKYVGHNVYNRVSFKLKKLRVVNPPEMWIRRDAAFPGVVPPDVFYTAQGIIRARAHRYTNEELIERLRGLYRNRGFLSGVVINETEDMPCAAVYAHRFGSLVRAYQLVGFTPDRDYRYVEINRALRRMHPDVLRQIEGQIAGLGGIVQRDAATDVLIVNGEFTVSIVLARCHEAAGMPNRWKIRLDSSLAPDISVAARLESGNQAVRDYYLLPKVDIGSSNISLAERNAAEFESYRFETLDYLYGMAARSRVRLAA	not soluble
MNHDIDIKKVRLNCFRQSKVPGEFMLQMRIPGGIVDAKYLSQIQEIAETWGNGTFHMGMRQTFNIPGIKYENIQAVNKFIENYLQEVEVDRCNCDMKVDENGYPTIGARNVMACIGNSHCIKANVDTKDMANKIEKLVFPSHYHIKVSVAGCPNDCAKGHFQDFGVIGQARMEYHEERCIGCGACVRACEHHATRVLSLNDKGLVDKDPCCCVGCGECVLACPASAWTRKPEKFYRIVIGGRTGKQTPRMGKTFINFATEEVVLGIFANWQKFSAWALDYKPEYLHGGHLIDRAGYHKFKEIILDGVELNPEALVADNIFWAETEYRSNFNVKPIKMHKTIESNRPLRLEHHHHHH	not soluble
MSLAIPFKRINLNLILHLDALLSERSVSAAAEKVFVSQPAMSSSLKQLRELFKDPLLIPGKGEYFLSPKAKELQPQLEQVMFFIRNILQPNERFDPFQTKRSFKIALPDYVELILLPSLMAALEKLPHIVIETTIQSMADDPHLFIDENVDLAIGAINENSLSAQLKVEKLYEEEIICFASKNNPLINRPLSLEDYISNKHIAFSFNQERYSHSAEYLYKRKLVRNDMLFVKNILPAIFAVANSDAVISTAPSFLINMFARQFNLGMQPLPFNLEPTPIYLVTHSKSQYDEGVSWLAKLVSSSIKSPSEGHHHHHH	soluble
MNRPHSATGDRPLALVDEHAHAWSPKTARARFRKGLTGPTAGVAAGHTQANLISVPADWAYDMLLFCTRNPQPCPVLDVTDAGSWTTVLADGADLRTDLPRYRVWRDGELVDEPSDVREHWRDDLVTFLIGCSFTFEWALAAAGVPIRHVEQGRNVPMYVTSRACRPAGRLRGPMVVSMRPVPPAHLSAAIHESSLLPAVHGSPVHCGDPSALGIDDLDRPDFGEAVYREPDDIPVFWACGVTPQAAVMASRPPFALTHAPGQMFLTDARDEQYRVALEHHHHHH	soluble
ARDPKHDILFEPIQIGPKTLRNRFYQVPHAIGAGSDKPGFQSAHRSVKAEGGWAALNTEYCSINPESDDTHRLSARIWDEGDVRNLKAMTDEVHKYGALAGVELWYGGAHAPNMESRATPRGPSQYASEFETLSYCKEMDLSDIAQVQQFYVDAAKRSRDAGFDIVYVYGAHSYLPLQFLNPYYNKRTDKYGGSLENRARFWLETLEKVKHAVGSDCAIATRFGVDTVYGPGQIEAEVDGQKFVEMADSLVDMWDITIGDIAEWGEDAGPSRFYQQGHTIPWVKLVKQVSKKPVLGVGRYTDPEKMIEIVTKGYADIIGCARPSIADPFLPQKVEQGRYDDIRVCIGCNVCISRWEIGGPPMICTQNATAGEEYRRGWHPEKFRQTKNKDSVLIVGAGPSGSEAARVLMESGYTVHLTDTAEKIGGHLNQVAALPGLGEWSYHRDYRETQITKLLKKNKESQLALGQKPMTADDVLQYGADKVIIATGARWNTDGTNCLTHDPIPGADASLPDQLTPEQVMDGKKKIGKRVVILNADTYFMAPSLAEKLATAGHEVTIVSGVHLANYMHFTLEYPNMMRRLHELHVEELGDHFCSRIEPGRMEIYNIWGDGSKRTYRGPGVSPRDANTSHRWIEFDSLVLVTGRHSECTLWNELKARESEWAENDIKGIYLIGDAEAPRLIADATFTGHRVAREIEEANPQIAIPYKRETIAWGTPHMPGGNFKIEYKV	soluble
MKTVKHLLQEKGHTVVAIGPDDSVFNAMQKMAADNIGALLVMKDEKLVGILTERDFSRKSYLLDKPVKDTQVKEIMTRQVAYVDLNNTNEDCMALITEMRVRHLPVLDDGKVIGLLSIGDLVKDAISQHQFVINQLERYIYDTREI	soluble
MPVVSNTELSMRRQEILEGARRCFAEHGYEGATVRRLEETVGKSRGAIFHHFSDKENLFLALAREDAARMAEVVAENGLVEVMRDMLAHPERHDWLATRLEITKMLRTDPSFRNRWIEHQRVLDDAVLERLQRNAHLGRMRDDVPIDVLHTYLETVLDGFISRLASGGDTDNLERVLDLVEESVRSSQPS	not soluble
MGSDKIHHHHHHMSNDIDLIKRLGPSAMDQIMLYLAFSAMRTSGHRHGAFLDAAATAAKCAIYMTYLEQGQNLRMTGHLHHLEPKRVKIIVEEVRQALMEGKLLKTLGSQEPRYLIQFPYVWMEQYPWIPGRSRIPGTSLTSEEKRQIEHKLPSNLPDAQLVTSFEFLELIEFLHKRSQEDLPPEHRMELSEALAEHIKRRLLYSGTVTRIDSPWGMPFYALTRPFYAPADDQERTYIMVEDTARYFRMMKDWAEKRPNAMRALEELDVPPERWDEAMQELDEIIRTWADKYHQVGGIPMILQMVFGRKED	not soluble
MRSKGFLHLDTEIVVPFFDVDMMNIVWHGHYVKYLEVARCALLDHIGHNYMQMLESGYGWPVIDLQLRYVRSAVFGQKLNVRASLVEWENRLKINYLITDADTGERLTRASTVQVAVDRDSHEMQLASPQVFIDAVKRALPLEHHHHHH	soluble
MSLTRDGSPWIPIAGEMHYSRIAAERWDTELAKMAAAGIDVVSTYVFWNHHEEREGEWDFSGNRNVRRFVELCARHGLHVIVRLGPFCHGEVRNGGLPDWLYGKSYEVRSLDAGFLDAVRGLYAHIAQQLRGLYFKDGGPIIAAQVDNEYMASSAPWEMTTGISREWVPSGHDGAGYLERLRDIAIEEGIDPPMFTCTGWQSPVPDDMLPLWGGYAYRPWLFYDGVGAEGMTEHPATDEYRYRRLHGSSTSDGFDPPYDPDSRPYACCEMGGGMFNSYDYRFVLPKRSVDAMANIKLGSGCDFLGYYMFHGGTNPKGAAGFLNEGQTPKRSYDFQAPLGKFGQVRESYRRLRTLHEFVKAFGPELAGMPVSLQDGQDRIDPSDSETLRYAVRSDGERGFVSIDNFQDHARVPSRHGEQIDVTTGTGERIRFTGIGLAEGENCILPFNMDLDGVRLVRANLQPVTVLRVPGRPFRTFVFLKPDGMDELTFHFEGDIQDVTVGKADFERFMVRDAAEIVCVTRALAGRMTVLDGGLAFVDDDNALLYEDGDGWTLESPRAENGIAAYPEGLLGSPRPVEPVSVYARMRRLHADRYEIALPAGMGRLFRDQRQVADVMLNIAYQGDIGWLFCGDVLIADNFCNGETWQVGLRDYADAIDAAGGKLTLVVTPLRRGVRVKVTSSMAARLEQSDACVADVTDVYATPVYHMPVGEGHHHHHH	soluble
MGSDKIHHHHHHMRKMKNNDKSVITVDLNDPVKSLEYLEEAFQIGTFILKNSPVNFKRLAKVLSDLDTFYNLDFKTKIDISGQISGGGATRGYFPLGVESGLVDVFEKKESYSFGWPDNEIPDSDASNLSLVAPNIYPDHGYINPDDINGLIKDFANAAKKLSRLIEIILFNGKTVLPIDESSDFQSLLRSFRYYKKTEFDPPNTGANSLHTDWNLITLVYADADGYQYRDNEGNFQNIIPEMEDCLIVNFGDFLSAWTGGKIVSPWHQVVEAKKKDVRNSLVFFYYPAASSSAVKNPIYNQGEPLSLFVDQSDPLNRLWDFSKIETMNEMYAGKWKQVSRK	not soluble
MSLKIVRILEKDLPITSPGANAVVDFAGLTTSAVAIVTDAFRDGKPLVGYGFGSIGRWSVGGMLRERFIPRILAVEPASLQDETGNIDPFACWNAAMRNEKPGGHGDRATALGALDMALWDLRAKADGVPLYRLLADRYRDGQADEDVAVYAAGGYYQPGSNYRSLQDELKGYIDRGYNEVKIKIGGAPLAEDMRRIEAAIAVLGDGARLAVDANGRFDLETALAYGRAMSDYGLRWYEEPGDPLDFRLMAVLAEHYDGPLATGENLFSSQDARNLLRYGGMRAERDFVQFDCGLAYGLPDYLKVLDIMRRHGWSPRRLHPHGGHQMSLHLAAGLGLGGNESYPGVFQPLGGFADCSKVENGRVRLPDAPGVGLELKSELKTWLDEAFEEGHHHHHH	not soluble
MSLIEPDHPQLSIGQQCKLLSISRSSFYYTPKGETDQNLSLMRQIDEQFLETPFFGVRQMTWHLRNEHHLVNEKRIRRLMRLMGLMPIYQKPNNTSRPGRGHKTYPYLLRGLRVDRPNQVWCSDITYLPMRRGFLYLVAIMDWHTRKVLAWRISNTLEADFCVEALNEAIHKFGPPEIMNTDQGSQFTSFAWTDRLRRSGVRISMDGKGRFLDNIFIERLWRTLKYECVYLHAWETGSEAKAGIRKWMTFYNSASLRPSFYVVEGNRFCEGHHHHHH	not soluble
MGSDKIHHHHHHMLRIFQGRPAVTIAAVLVAASVAGCAGKAKKPTLVYEERPVELLYSTGADRLDRGNWNEAVDYFREVERQHPYSEWSRRSILMTGYAHYMGNQYAEAIGDADRFISLYPGNPSAQYAFYLKAICYFEQIVDVNRDQAATEQALAALRDVVQRYPNTEYATDARLKIDMVNDQLAGKEMAIGRWYLKNGQTLAAIGRFKAVIERHQTTSHTPEALFRLVEAYLTIGLNEEAKRNGAVLGYNFPGDRWYVDAYRLLNDNGLRPAVEPLKAGAKRNALERILSKDKEATLAPPGERKAKKGLLGPLGM	not soluble
MPSNCRRFEGKVAIVTAATKGIGLAIAERLLDEGASVVIGSRNQKNVDEAIEYLKNKGLTKVAGIAGHIASTDDQKKLVDFTLQKFGKINILVNNHGINPAFGHILEVSDQVWDKLFEVNVKAGFQMTKLVHPHIAKEGGGAIIFNASYSAYKSPPGIAAYGVTKTTLVGLTRALAMGLAKDNIRVNGIAPGVIKTKMSQVLWDGGEDAEKELTDIQEIALGRLGVPDDCAGTVAYLASDDSSYITGEMIIIAGGVQARL	not soluble
MNRMEYNPIKKVVSGNYAAAYAALHARVQVVAAYPITPQTSIIEKIAEFIANGEADIQYIPVESEHSAMAACIGASATGARVFTATSAQGLALMHEMLHWAAGSRLPIVMVNVNRAMAPPWSVWDDQTDSLSQRDTGWMQFYAENNQEVYDGVLMAYKVAETVNIPTMIIESAFILSHTYEVVNMIPQELVDEFLPPRKPLYTLTDFENPIAVGALATPADYYEFRYKIAKAHEEAKKVIKSVGKEFGERFGRDYSKMIETGYIEDADFVFMGMGSLMGTVKEAVDLLRKEGYKVGYAKVRWFRPFPKEELLEIAESVKGIAVLDRNFSFGQEGILFTEAKGALYNTGVRPIMKDYIVGLGGRDFTVRDVKAIAEDMKKVVESGKLDKEIEWYHLKR	soluble
